From the supplement of paper PMC9876800

Tested on: peptide library, one residue held at a place counted from the S/T acceptor
Experiment: relative phosphorylation of the sub-library (ratio to the mean residue at this position); higher = residue favoured
Details: human
Outline: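 Purified recombinant kinases (human or orthologue constructs) were incubated in 384-well plates with biotinylated degenerate peptide sub-libraries, each fixing one residue at one position around a central Ser/Thr. Peptides were at 50 μM, with 50 μM ATP spiked with γ-32P-ATP, for 90 min under kinase-specific conditions. Spots on streptavidin membranes were phosphorimaged and quantified by densitometry. Relative sub-library phosphorylation is a ratio to the mean residue at that position.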

STK26, construct: Full length, sequence (Q9P289 whole entry, looked up): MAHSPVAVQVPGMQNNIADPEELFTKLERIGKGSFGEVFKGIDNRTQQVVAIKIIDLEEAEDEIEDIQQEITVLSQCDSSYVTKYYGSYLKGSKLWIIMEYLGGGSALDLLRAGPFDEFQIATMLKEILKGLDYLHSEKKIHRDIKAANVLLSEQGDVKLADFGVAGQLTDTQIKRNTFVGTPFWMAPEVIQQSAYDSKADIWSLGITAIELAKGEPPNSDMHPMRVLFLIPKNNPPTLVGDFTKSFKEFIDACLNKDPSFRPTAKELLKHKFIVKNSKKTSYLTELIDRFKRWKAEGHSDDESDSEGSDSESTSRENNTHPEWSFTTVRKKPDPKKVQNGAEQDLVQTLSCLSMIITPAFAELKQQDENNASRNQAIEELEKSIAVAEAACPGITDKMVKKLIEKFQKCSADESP

PIM3, construct: Full length (from UniProt Q86V86)
relative phosphorylation
Details	at +1	at +2	at +3	at +4	at -1	at -2	at -3	at -4	at -5
A fixed	1.07	0.944	0.735	0.954	0.952	0.672	0.676	0.984	1.16
D fixed	0.918	0.986	1.47	1.17	0.769	0.637	0.718	1.07	0.989
E fixed	1.44	0.858	1.26	1.11	0.996	0.621	0.674	1.14	0.697
F fixed	0.469	0.684	0.673	0.752	0.608	0.761	0.393	0.62	0.693
G fixed	3.27	0.888	1.21	1.37	0.819	0.746	0.848	1.45	1.25
H fixed	0.811	1.84	1.2	1.03	1.02	2.91	0.985	1.1	1.32
I fixed	0.715	0.499	0.602	0.728	0.454	0.427	0.249	0.628	0.533
K fixed	0.959	1.23	1.24	1.09	1.78	1.14	1.64	1.24	1.72
L fixed	0.571	0.624	0.587	0.823	0.693	0.473	0.309	0.567	0.52
M fixed	0.84	0.648	0.733	0.827	0.713	0.566	0.403	0.992	0.539
N fixed	1.21	1.57	1.24	1.16	1.46	1.23	0.74	0.975	0.869
P fixed	0.416	1.11	0.828	1.47	2.12	1.1	1.33	1.42	1
Q fixed	1.33	1.16	1.19	1.14	1.46	1.07	0.856	1.08	0.926
R fixed	0.955	1.44	1.53	0.79	1	2.1	5.83	1.57	2.42
V fixed	0.828	0.7	0.69	0.859	0.697	0.456	0.372	0.657	0.714
W fixed	0.553	0.981	0.931	0.934	0.529	0.905	0.575	0.775	0.961
Y fixed	0.634	0.824	0.87	0.795	0.926	1.19	0.409	0.744	0.688
pThr fixed	1.27	1.04	1.04	1.68	0.585	0.694	0.78	0.779	0.67
pTyr fixed	0.783	0.886	1.11	1.02	1.21	0.975	0.904	1.03	1.03

STK26, construct: Full length (from UniProt Q9P289)
relative phosphorylation
Details	at +1	at +2	at +3	at +4	at -1	at -2	at -3	at -4	at -5
A fixed	0.593	0.524	0.871	0.922	0.76	0.947	0.809	1.21	1.23
D fixed	0.265	0.606	0.583	0.538	0.894	0.424	0.625	0.745	0.706
E fixed	0.21	0.519	0.525	0.538	0.475	0.373	0.616	0.797	0.653
F fixed	1.24	0.246	0.869	0.625	0.499	0.972	0.754	0.771	0.777
G fixed	0.583	2.19	1.44	0.991	2.31	1.21	1.09	1.09	1.03
H fixed	0.805	1.06	1	1.06	1.11	1.35	1.01	1.17	1.05
I fixed	1.56	0.511	0.798	0.971	0.397	0.759	0.711	0.83	0.929
K fixed	0.666	3.49	2.55	2.01	2.16	2.08	2.31	1.64	1.92
L fixed	1.78	0.402	1.05	0.77	0.78	0.549	0.665	0.682	0.783
M fixed	1.3	0.358	0.667	0.818	0.666	0.613	0.79	0.773	0.74
N fixed	0.53	1.27	0.771	0.862	1.39	1.15	1.15	1.08	0.994
P fixed	0.372	1.03	0.636	0.828	0.551	0.659	0.739	0.879	0.791
Q fixed	0.642	0.774	0.741	0.932	0.938	0.882	0.903	0.939	1
R fixed	0.722	2.77	2.16	1.89	2.15	2.03	2.21	1.64	1.61
V fixed	1.4	0.517	0.751	0.874	0.483	0.942	0.846	0.954	1.01
W fixed	3.2	0.394	0.814	1.38	0.821	1.01	0.943	0.941	0.969
Y fixed	1.12	0.326	0.767	0.994	0.607	1.05	0.824	0.876	0.812
pThr fixed	0.722	0.707	0.584	0.815	0.813	1.05	0.981	0.958	0.86
pTyr fixed	0.604	0.368	0.714	0.54	1.2	1.19	0.996	0.69	0.834
